± gives the uncertainty stated by the source.

A short description of the data set: abundance fitness (aPCA) (normalised: wild type 0, dead -1); higher = more abundant; growth selection in yeast, the domain comes from the species named. As to conditions: Homo sapiens.
Turning to “DnaJ homolog subfamily B member 1 Y31Q, P25685”, the abundance fitness was -0.181 ± 0.12. As for “DnaJ homolog subfamily B member 1 Y31R, P25685”, the figure is -0.401 ± 0.086; as for “DnaJ homolog subfamily B member 1 Y31T, P25685”, -0.369 ± 0.12. As for “DnaJ homolog subfamily B member 1 Y31V, P25685”, the figure is -0.234 ± 0.12; as for “DnaJ homolog subfamily B member 1 Y31W, P25685”, -0.188 ± 0.1.

The substance “DnaJ homolog subfamily B member 1 Y52A, P25685” had an abundance fitness of -0.265 ± 0.083. Then “DnaJ homolog subfamily B member 1 Y52C, P25685”, with -0.404 ± 0.21. As for “DnaJ homolog subfamily B member 1 Y52D, P25685”, the abundance fitness is -0.3 ± 0.17. In turn, “DnaJ homolog subfamily B member 1 Y52E, P25685” registered an abundance fitness of -0.441 ± 0.069. As for “DnaJ homolog subfamily B member 1 Y52F, P25685”, the abundance fitness stood at 0.076 ± 0.091. Then “DnaJ homolog subfamily B member 1 Y52G, P25685”, with -0.194 ± 0.077; and “DnaJ homolog subfamily B member 1 Y52H, P25685”, with -0.03 ± 0.3. As for “DnaJ homolog subfamily B member 1 Y52K, P25685”, the figure is -0.337 ± 0.13; as for “DnaJ homolog subfamily B member 1 Y52L, P25685”, -0.39 ± 0.071; as for “DnaJ homolog subfamily B member 1 Y52M, P25685”, -0.049 ± 0.091. As for “DnaJ homolog subfamily B member 1 Y52N, P25685”, the figure is -0.195 ± 0.14; as for “DnaJ homolog subfamily B member 1 Y52P, P25685”, -0.466 ± 0.1.

As for “DnaJ homolog subfamily B member 1 Y52Q, P25685”, the abundance fitness was -0.306 ± 0.11. As for “DnaJ homolog subfamily B member 1 Y52R, P25685”, the figure is -0.305 ± 0.071; as for “DnaJ homolog subfamily B member 1 Y52S, P25685”, -0.332 ± 0.058. For the substance “DnaJ homolog subfamily B member 1 Y52T, P25685”, the abundance fitness is -0.333 ± 0.089.

“DnaJ homolog subfamily B member 1 Y52V, P25685” came in with an abundance fitness of -0.249 ± 0.089. Then “DnaJ homolog subfamily B member 1 Y52W, P25685”, with 0.005 ± 0.074.

(Values after the Human Domainome abundance scans (Beltran et al. 2025).)
